Test results taken from patent US8957029 (MAX PLANCK GESELLSCHAFT ZUR FORDERUNG DER WISSENSCHAFTEN E V, dated 2015).
No end group written: not given here. fluorescein = fluorescein tag at the N-terminus

Molecular target: non-muscle actin
Test: F-actin co-sedimentation, peptide fluorescence in pellet over total, hyperbolic fit

Kd: 5.4 µM
B1: F-Lifeact (chemically synthesized 17aa Lifeact peptide tagged with fluorescein at its N-terminus) (peptide)
peptide: fluorescein-MGVADLIKKFESISKEE
notes: also called fluorescein conjugated Lifeact; F-Lifeact peptide
